System: GST-KSRP
Experiment: competition
Details: REMSA: 50 mM Tris-HCl pH 7.0, 150 mM NaCl, 0.25 mg/ml tRNA, 0.25 mg/ml BSA, 5% glycerol, 10 min 37°C; competition: 10 mM HEPES pH 7.4, 100 mM KCl, 5 mM MgCl2 …; scale: % HuD binding remaining at equimolar KSRP

GAP-43 ARE RNA (pGAP/B transcript) gave a binding signal of 50.

Reference: publication PMC3828348
